Consider eleven molecules from paper PMC9127587, “Antibody recognition of complement factor H reveals a flexible loop involved in atypical hemolytic uremic syndrome pathogenesis” (The Journal of Biological Chemistry, 2022).

Assay [1] deals with CFH18-20 W1183A_(CCP20) (human) (UniProt P08603). Description: SPR; CFH18-20 (or W1183A) immobilised on a CM5 chip by amine coupling at around 300 RU; VHH4 or its mutants injected as analyte at 30 uL/min; single-cycle kinetics; PBS pH 7.4, Tween 20 (0.005%), 25 °C; Biacore 8K. (In general: SPR reads the build-up and loss of mass on a sensor chip optically.)
The target in assay [2] is CFH18-20 (human complement factor H CCP18-20) with myc tag and His-tag (human) (UniProt P08603). The description is as above.
Assay [3] deals with T1, CFH18-20 (human complement factor H CCP18-20) with His-tag only (Homo sapiens, UniProt P08603).
T1 construct: complement factor H (CFH), human, domains CCP18-20; Construct for crystallization; Domain CCP18 was not observed in the crystal structure; also called CFH18-20 with His-tag; source: Expi293 cells, transfected, purified from the supernatant (Ni-NTA, SEC); not shown: His-tag, C-terminal, kept
The experiment in a line: crystal structure; complex of CFH18-20 with His-tag and VHH4 mixed at 1:1.2 and purified by SEC; crystals at 20 °C in 200 mM sodium phosphate monobasic, 20% PEG 3350; 2.6 Å. Conditions: both partners purified.

For assay [4], the target named is CFH18-20 (human complement factor H CCP18-20) with myc tag and His-tag (human) (UniProt P08603). The experiment in a line: ITC; CFH18-20 in the cell (5-15 uM), VHH4 or mutants in the syringe (50-150 uM), 20 injections; PBS pH 7.4, 25 °C; iTC200. (In general: In ITC the heat of successive injections is recorded.)
Assay [5] addresses T2, CFH18-20 (human complement factor H CCP18-20) with myc tag and His-tag (Homo sapiens, UniProt P08603).
T2 construct: complement factor H (CFH), human, domains CCP18-20; Construct for SPR and ITC; PDB 7WKI holds the His-only form of the same protein; also called CFH18-20 WT; CFH CCP18-20; source: Expi293 cells, transfected, purified from the supernatant (Ni-NTA, SEC); not shown: myc, C-terminal, kept; His-tag, C-terminal, kept
The description is as above. Conditions: both partners purified.

Assay [6] deals with T2, CFH18-20 (human complement factor H …). Description: SPR; CFH18-20 (or W1183A) immobilised on a CM5 chip by amine coupling at around 300 RU; VHH4 or its mutants injected as analyte at 30 uL/min; single-cycle kinetics; PBS pH 7.4, Tween 20 (0.005%), 25 °C; Biacore 8K. Conditions: both partners purified.

Sequence of CFH18-20 (human complement factor H CCP18-20) with myc tag and His-tag (human) (P08603 1046-1231): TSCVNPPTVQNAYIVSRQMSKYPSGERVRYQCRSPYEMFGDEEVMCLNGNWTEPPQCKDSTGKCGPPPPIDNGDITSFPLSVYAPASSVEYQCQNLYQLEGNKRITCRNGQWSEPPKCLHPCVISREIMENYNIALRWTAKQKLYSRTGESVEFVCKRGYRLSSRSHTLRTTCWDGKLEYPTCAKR
T2 sequence (P08603 1046-1231): as above
Sequence of CFH18-20 W1183A_(CCP20) (human) (P08603 1046-1231 W1183A): as the sequence (P08603 1046-1231) above, with W138A counted along it
T1 sequence (P08603 1046-1231): as the sequence (P08603 1046-1231) above

B1: VHH4 (VHH)
VHH: QVQLVESGGGLVQAGGSLRLSCAASGLTVDDYAIGWFRQAPGKEREGVSCISSSNGSTYYADSVKGRFTISSDNAKNTAYLQMNSLKPEDTAVYYCAAAVSPNLECGTGPFGIYASYYGMDYWGQGTQVTVSS
notes: alpaca VHH selected by phage display; CDR3 is Ala99-Tyr122; Disulfide bond between Cys50 and Cys106; also called VHH4 WT; WT; source: E. coli BL21 (DE3), purified (Ni-NTA, SEC)
The term Kd denotes the equilibrium constant for the complex coming apart. Read a high Kd as lower affinity. Broadly, the koff is the rate constant with which the complex falls apart. Read a high koff as a short-lived complex. In general, kon refers to the second-order rate constant of association. A higher kon goes with faster complex formation. As usually defined, the stoichiometry N is a count of units in the complex or per binding partner. B1 gave a Kd in assay [1] greater than 1000 nM. In assay [2], this molecule had a dissociation constant (Kd) of 0.00171 nM, a koff of 5.53e-08 s⁻¹ and a kon of 31400 M⁻¹ s⁻¹. Moreover, the binding result in assay [3] is on record as “binds”. In assay [4], this molecule displayed a Kd of 2.01 nM, a dH of -28.9 kcal/mol and a stoichiometry N of 0.895.

B2: VHH4 D121A (VHH)
VHH: QVQLVESGGGLVQAGGSLRLSCAASGLTVDDYAIGWFRQAPGKEREGVSCISSSNGSTYYADSVKGRFTISSDNAKNTAYLQMNSLKPEDTAVYYCAAAVSPNLECGTGPFGIYASYYGMAYWGQGTQVTVSS
notes: as the VHH chain of m4 (PDB 7WKI) with the stated change; also called D121A_(VHH4); Asp121A_(VHH4); source: E. coli BL21 (DE3), purified (Ni-NTA, SEC), as the wildtype
With B2, in assay [5], the Kd was found to be 361 ± 64.9 nM, the dH was -29.5 ± 1.14 kcal/mol and the “stoichiometry N” value is 1 ± 0.019. In assay [6], this molecule returned a Kd of 127 ± 30 nM, a koff of 0.000545 s⁻¹ and a kon of 4340 M⁻¹ s⁻¹.

B3: VHH4 Y95A (VHH)
VHH: QVQLVESGGGLVQAGGSLRLSCAASGLTVDDYAIGWFRQAPGKEREGVSCISSSNGSTYYADSVKGRFTISSDNAKNTAYLQMNSLKPEDTAVYACAAAVSPNLECGTGPFGIYASYYGMDYWGQGTQVTVSS
Turning to B3, in assay [2], the Kd is 0.166 nM, the koff was determined as 4.42e-06 s⁻¹ and the kon stood at 30400 M⁻¹ s⁻¹. In assay [4], this molecule yielded a Kd of 2.27 nM, a dH of -28.2 kcal/mol and a stoichiometry N of 0.842.

B4: VHH4 P102A (VHH)
VHH: QVQLVESGGGLVQAGGSLRLSCAASGLTVDDYAIGWFRQAPGKEREGVSCISSSNGSTYYADSVKGRFTISSDNAKNTAYLQMNSLKPEDTAVYYCAAAVSANLECGTGPFGIYASYYGMDYWGQGTQVTVSS
In assay [2], B4 yielded a Kd of 0.219 nM, a dissociation rate constant (koff) of 4.07e-06 s⁻¹ and a kon of 23700 M⁻¹ s⁻¹. Moreover, in assay [4], the Kd is 4.11 nM, the dH is -29.6 kcal/mol and the stoichiometry N came out at 0.961.

B5: VHH4 Y117A (VHH)
VHH: QVQLVESGGGLVQAGGSLRLSCAASGLTVDDYAIGWFRQAPGKEREGVSCISSSNGSTYYADSVKGRFTISSDNAKNTAYLQMNSLKPEDTAVYYCAAAVSPNLECGTGPFGIYASAYGMDYWGQGTQVTVSS
In assay [2], B5 yielded a Kd of 0.498 nM, a koff of 5.39e-07 s⁻¹ and a kon of 11300 M⁻¹ s⁻¹. Moreover, in assay [4], the Kd came out at 5.87 nM, the dH is -28.1 kcal/mol and the stoichiometry N came to 0.933.

B6: VHH4 P110A (VHH)
VHH: QVQLVESGGGLVQAGGSLRLSCAASGLTVDDYAIGWFRQAPGKEREGVSCISSSNGSTYYADSVKGRFTISSDNAKNTAYLQMNSLKPEDTAVYYCAAAVSPNLECGTGAFGIYASYYGMDYWGQGTQVTVSS
In assay [2], B6 yielded a Kd of 0.504 nM, an off-rate (koff) of 7.11e-06 s⁻¹ and a kon of 9210 M⁻¹ s⁻¹. For the same molecule, in assay [4], the Kd was 5.03 nM, the dH is -29.8 kcal/mol and the stoichiometry N came out at 0.838.

B7: VHH4 T108A (VHH)
VHH: QVQLVESGGGLVQAGGSLRLSCAASGLTVDDYAIGWFRQAPGKEREGVSCISSSNGSTYYADSVKGRFTISSDNAKNTAYLQMNSLKPEDTAVYYCAAAVSPNLECGAGPFGIYASYYGMDYWGQGTQVTVSS
Turning to B7, in assay [2], the Kd was 0.146 nM, the koff was found to be 2.57e-06 s⁻¹ and the kon came to 17900 M⁻¹ s⁻¹. Further, in assay [4], the Kd worked out at 8.79 nM, the dH was -27.2 kcal/mol and the stoichiometry N was 0.924.

B8: VHH4 L104A (VHH)
VHH: QVQLVESGGGLVQAGGSLRLSCAASGLTVDDYAIGWFRQAPGKEREGVSCISSSNGSTYYADSVKGRFTISSDNAKNTAYLQMNSLKPEDTAVYYCAAAVSPNAECGTGPFGIYASYYGMDYWGQGTQVTVSS
notes: as the VHH chain of m4 (PDB 7WKI) with the stated change; also called L104A_(VHH4); Leu104A_(VHH4); source: E. coli BL21 (DE3), purified (Ni-NTA, SEC), as the wildtype
Turning to B8, in assay [5], the Kd stood at 166 ± 40.3 nM, the dH was -24.5 ± 0.99 kcal/mol and the “stoichiometry N” value turned out to be 0.947 ± 0.061. In addition, in assay [6], the equilibrium dissociation constant (Kd) stood at 44.1 ± 2.3 nM, the koff worked out at 0.000489 s⁻¹ and the kon is 11200 M⁻¹ s⁻¹.

B9: VHH4 W123A (VHH)
VHH: QVQLVESGGGLVQAGGSLRLSCAASGLTVDDYAIGWFRQAPGKEREGVSCISSSNGSTYYADSVKGRFTISSDNAKNTAYLQMNSLKPEDTAVYYCAAAVSPNLECGTGPFGIYASYYGMDYAGQGTQVTVSS
Take B9: in assay [2], the Kd is 5.05 nM, the koff stood at 0.000159 s⁻¹ and the kon was 31200 M⁻¹ s⁻¹. In assay [4], this molecule returned a Kd of 3.92 nM, a dH of -20.9 kcal/mol and a stoichiometry N of 0.866.

B10: VHH4 Y118A (VHH)
VHH: QVQLVESGGGLVQAGGSLRLSCAASGLTVDDYAIGWFRQAPGKEREGVSCISSSNGSTYYADSVKGRFTISSDNAKNTAYLQMNSLKPEDTAVYYCAAAVSPNLECGTGPFGIYASYAGMDYWGQGTQVTVSS
notes: as the VHH chain of m4 (PDB 7WKI) with the stated change; also called Y118A_(VHH4); Tyr118A_(VHH4); source: E. coli BL21 (DE3), purified (Ni-NTA, SEC), as the wildtype
For the molecule B10, in assay [5], the Kd was 410 ± 26.4 nM, the dH is -19.4 ± 0.33 kcal/mol and the “stoichiometry N” value stood at 0.947 ± 0.041. In assay [6], this molecule yielded a Kd of 2200 ± 732 nM, a koff of 0.0298 s⁻¹ and a kon of 15800 M⁻¹ s⁻¹.

B11: VHH4 G119A (VHH)
VHH: QVQLVESGGGLVQAGGSLRLSCAASGLTVDDYAIGWFRQAPGKEREGVSCISSSNGSTYYADSVKGRFTISSDNAKNTAYLQMNSLKPEDTAVYYCAAAVSPNLECGTGPFGIYASYYAMDYWGQGTQVTVSS
In assay [2], B11 returned a Kd of 9.18 nM, a koff of 0.000611 s⁻¹ and a kon of 62800 M⁻¹ s⁻¹. Besides, in assay [4], the Kd was found to be 7.26 nM, the dH was -19.4 kcal/mol and the stoichiometry N was found to be 0.865.
